Measurements from publication PMC11245307, “Evolutionary adaptation of an HP1-protein chromodomain integrates chromatin and DNA sequence signals” (eLife, 2024).
Positions count from the first letter of the chain named. Ends that are not written are not given here. Me3 = trimethyl (on lysine, trimethyl-lysine)

Tests used:
Experiment in all cases: ITC; chromodomain at 100 µM, H3K9me3 peptide at approximately 1 mM; 20 mM Tris, pH 8.0, 25 mM NaCl, 2 mM β-mercaptoethanol; 20°C; MicroCal iTC200, sixteen 2.5 µl injections
Details in all cases: both partners purified
[1] = target: T1, Rhino chromodomain, wildtype construct (Rhino residues 20-90) (D. melanogaster, UniProt Q7JXA8 20-90)
T1 construct: Rhino (HP1d), D. melanogaster, chromodomain construct spanning residues 20-90; Expressed as His6-SUMO-RhinoCD in pET-28; the tag was removed with Ulp1 protease; also called RhinoCD; wildtype domain; source: E. coli BL21-CodonPlus (DE3)-RIPL, purified (Ni-NTA, Ulp1 cleavage, ion exchange, Superdex75); not shown: His6, N-terminal, cleaved; SUMO, N-terminal, cleaved
T1 sequence (looked up): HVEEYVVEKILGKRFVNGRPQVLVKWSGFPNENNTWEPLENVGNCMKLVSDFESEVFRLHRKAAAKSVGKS

[2] = target: T2, Rhino chromodomain G31A (Rhino residues 20-90) (D. melanogaster, UniProt Q7JXA8 20-90, G31A)
T2 construct: Rhino (HP1d), D. melanogaster, chromodomain construct spanning residues 20-90, with G31A; also called G31A mutant; source: E. coli BL21-CodonPlus (DE3)-RIPL, purified (Ni-NTA, Ulp1 cleavage, ion exchange, Superdex75); not shown: His6, N-terminal, cleaved; SUMO, N-terminal, cleaved
T2 sequence (looked up): T1 sequence (looked up) with G12A

[3] = target: T3, Rhino chromodomain G31D (Rhino residues 20-90) (D. melanogaster, UniProt Q7JXA8 20-90, G31D)
T3 construct: Rhino (HP1d), D. melanogaster, chromodomain construct spanning residues 20-90, with G31D; also called Rhino^G31D chromodomain; source: E. coli BL21-CodonPlus (DE3)-RIPL, purified (Ni-NTA, Ulp1 cleavage, ion exchange, Superdex75); not shown: His6, N-terminal, cleaved; SUMO, N-terminal, cleaved
T3 sequence (looked up): T1 sequence (looked up) with G12D

Kd [1]: 30.9 ± 3 µM
Kd [2]: 43.5 ± 8.6 µM
Kd [3]: 31.1 ± 3.2 µM
B1: H3K9me3 peptide (KQTAR-K[me3]-STGGK) (peptide)
peptide: KQTARK(Me3)STGGK
notes: histone H3 N-terminal tail, K4 to K14 with K9 trimethylated; also called H3K9me3-modified histone tail peptide; synthetic H3K9me3 peptides; source: synthetic peptide; bought: AnaSpec, Inc
